Test results reported in patent US20100015126A1, “Methods of Binding of Cross-Beta Structures By Chaperones” (priority 2006, published 2010).

Legend:
human BiP [1] = biological target: T1, human BiP (Homo sapiens, UniProt P11021); assay: ELISA: binding of BiP-FLAG-His to immobilized (misfolded) protein ligands; conditions: ligands coated at 5 μg/ml; 6BB peptides and oxLDL 50 μg/ml
T1 construct: The human BiP gene except the signal peptide encoding region was obtained from Geneart (Germany); linker […]; made in house; host or cells: HEK 293E cells, transient transfection, PABC674 vector; secreted into the medium
Method: Enzyme Linked Immunosorbent Assay for Testing of Chaperone Binding to Misfolded Proteins
(§1) Binding of chaperones to immobilized (misfolded) protein ligands was determined using an enzyme linked immuno sorbent assay (ELISA) approach. For this purpose 50 μl/well of potential ligands at indicated concentrations or coat buffer only for control and background measurement purposes, were coated overnight at 4° C. or coated for 1 h at room temperature, with motion, in 50 mM NaHCO3 pH 9.6 (coat buffer). In general, ligands were coated at 5 μg/ml, unless stated otherwise. For example, BiP binding peptides 6BB# and oxLDL were coated at 50 μg/ml. Native haemoglobin (Sigma-Aldrich, H7379), albumin, IgIV Gammagard and ovalbumin controls were prepared from lyophilized stocks. The controls were prepared by dissolving lyophilized proteins at 1 mg/ml in PBS upon resuspending by pipetting, followed by a 30 minutes period at the roller device, at room temperature. The protein solutions were centrifuged for 10 minutes at 16,000*g and diluted in coat buffer. After coating the plates were washed at least three times with 50 mM Tris-HCl pH 7.3, 150 mM NaCl, 0.1% v/v Tween20, and blocked with Blocking reagent (Roche Diagnostics, Almere, The Netherlands; 11112589001), for 1 h at room temperature, with motion. Plates were washed three times and incubated in triplicate with indicated chaperone dilution series, at 50 μl/well, for 1 h at room temperature, with constant motion. For HSP90, 5 mM DTT is incorporated in the binding buffer (PBS/0.1% Tween20) to avoid unwanted disulfide bond formation of the HSP90. Plates were washed three times and incubated with anti-FLAG antibody (mouse antibody, M2, peroxidase conjugate; Sigma, A-8592) for BiP-FLAG-His, anti-His-tag antibody (Mouse Monoclonal Antibody, Cat. No. 70796, Novagen [0.2 mg/ml]) for HSP60, a 1:1 mix of 500-fold diluted anti-HSP90beta antibodies (Stressgen, SPA-643 [mouse monoclonal IgM], SPA-646 [rabbit polyclonal]) for HSP90 and an anti-DnaK antibody (Stressgen, 023SPA-880D [mouse monoclonal antibody]) for DnaK. After four wash cycles, secondary antibodies were added to the wells when required, 50 μl/well, for 45′ at room temperature, with motion. RAMPO and SWARPO were used at 3000 times dilution. […] In a second experiment with more immobilized misfolded proteins and controls, the detection of bound HSP90 with the mix of two anti-HSP90 antibodies was achieved by mixing 1:1500 SWARPO with 1:3000 RAMPO. After 5 washes with wash buffer followed by two washes with PBS, binding of antibodies was assessed. Bound anti-FLAG-PO, peroxidase-conjugated rabbit anti-mouse immunoglobulins (RAMPO, P0260, DAKOCytomation, Glostrup, Denmark) or peroxidase-coupled swine anti-rabbit immunoglobulins (SWARPO, P0217, DAKOCytomation) was visualized with tetramethylbenzidine (TMB, #45.01.20,/#45.014.01, Biosource, Nivelles, Belgium). The reaction was stopped after 5 minutes with 1% H2SO4 in H2O. Plates were read at 450 nm. Triplicates were averaged and standard deviations calculated. Background signals obtained with buffer-coated wells were subtracted (binding of primary antibody to empty wells), as well as background signals obtained with ligand-coated wells in which the chaperones were omitted (binding of primary and secondary antibody to coated ligands). Subsequently, sub-optimal concentrations of chaperones for binding to misfolded protein ligands are determined, and these concentrations are used for inhibition studies. […] We have previously identified that a sub-fraction of IgIV molecules has affinity for misfolded proteins comprising crossbeta structure (pending patent application). Moreover, we identified that the sub-fraction of IgIV molecules directly binds to crossbeta structure and/or crossbeta structure induced conformation (not shown; pending patent application). […]

human BiP [2] = biological target: T1, human BiP; assay: Competition ELISA: BiP binding to misfolded proteins under influence of crossbeta binding compounds; conditions: fixed sub-optimal BiP concentration
Method: Binding of chaperones to immobilized (misfolded) protein ligands was determined using an enzyme linked immuno sorbent assay (ELISA) approach. For this purpose 50 μl/well of potential ligands at indicated concentrations or coat buffer only for control and background measurement purposes, were coated overnight at 4° C. or coated for 1 h at room temperature, with motion, in 50 mM NaHCO3 pH 9.6 (coat buffer). In general, ligands were coated at 5 μg/ml, unless stated otherwise. For example, BiP binding peptides 6BB# and oxLDL were coated at 50 μg/ml. Native haemoglobin (Sigma-Aldrich, H7379), albumin, IgIV Gammagard and ovalbumin controls were prepared from lyophilized stocks. The controls were prepared by dissolving lyophilized proteins at 1 mg/ml in PBS upon resuspending by pipetting, followed by a 30 minutes period at the roller device, at room temperature. The protein solutions were centrifuged for 10 minutes at 16,000*g and diluted in coat buffer. After coating the plates were washed at least three times with 50 mM Tris-HCl pH 7.3, 150 mM NaCl, 0.1% v/v Tween20, and blocked with Blocking reagent (Roche Diagnostics, Almere, The Netherlands; 11112589001), for 1 h at room temperature, with motion. Plates were washed three times and incubated in triplicate with indicated chaperone dilution series, at 50 μl/well, for 1 h at room temperature, with constant motion. For HSP90, 5 mM DTT is incorporated in the binding buffer (PBS/0.1% Tween20) to avoid unwanted disulfide bond formation of the HSP90. […] After four wash cycles, secondary antibodies were added to the wells when required, 50 μl/well, for 45′ at room temperature, with motion. RAMPO and SWARPO were used at 3000 times dilution. […] In a second experiment with more immobilized misfolded proteins and controls, the detection of bound HSP90 with the mix of two anti-HSP90 antibodies was achieved by mixing 1:1500 SWARPO with 1:3000 RAMPO. After 5 washes with wash buffer followed by two washes with PBS, binding of antibodies was assessed. Bound anti-FLAG-PO, peroxidase-conjugated rabbit anti-mouse immunoglobulins (RAMPO, P0260, DAKOCytomation, Glostrup, Denmark) or peroxidase-coupled swine anti-rabbit immunoglobulins (SWARPO, P0217, DAKOCytomation) was visualized with tetramethylbenzidine (TMB, #45.01.20,/#45.014.01, Biosource, Nivelles, Belgium). The reaction was stopped after 5 minutes with 1% H2SO4 in H2O. Plates were read at 450 nm. Triplicates were averaged and standard deviations calculated. Background signals obtained with buffer-coated wells were subtracted (binding of primary antibody to empty wells), as well as background signals obtained with ligand-coated wells in which the chaperones were omitted (binding of primary and secondary antibody to coated ligands). Subsequently, sub-optimal concentrations of chaperones for binding to misfolded protein ligands are determined, and these concentrations are used for inhibition studies.
In a subsequent study we analysed whether BiP interacts directly with the crossbeta structure, by performing ELISA binding studies with a fixed sub-optimal concentration of BiP and concentration series of crossbeta binding compounds. The results are depicted in FIGS. 12, 13 and Table 7. Binding of BiP without added crossbeta binding compounds was set to 100%.

[3] = biological target: T2, Escherichia coli HSP70 family member DnaK (Escherichia coli, UniProt P0A6Y8); assay: ELISA: binding of DnaK to immobilized (misfolded) protein ligands
T2 construct: purchased Stressgen (Ann Arbor, Mich., USA) SPP-630
Method: Recombinant Escherichia coli (E. coli) DnaK was purchased from Stressgen (Ann Arbor, Mich., USA; SPP-630). For the binding studies first lot B502468 (100 μg, lot A) and then lot 05240609 (200 μg, lot B) was used.
as §1

[4] = biological target: T3, human mitochondrial HSP60 (Homo sapiens, UniProt P10809); assay: ELISA: binding of HSP60 to immobilized (misfolded) protein ligands
T3 construct: Dr. W. van Eden, Utrecht University; host or cells: E. coli
Method: Recombinant human HSP60 with N-terminal His-tag was a kind gift of Dr. R. van der Zee and Prof. Dr. W. van Eden (Institute of Infectious Diseases and Immunology, Faculty of Veterinary Medicine, Utrecht University, Utrecht, The Netherlands), and was supplied in lyophilized form. The HSP60 was produced in E. coli and purified using Nickel-Sepharose. The HSP60 was lyophilized from 20-40 mM ammonium-bicarbonate solution, after purification, and stored at −20° C. The construct lacks the mitochondrial signal sequence. […] Before use, the lyophilized protein is dissolved at room temperature at 1 mg/ml in 20-40 mM NH4HCO3, resulting in a pH of 7.0. Aliquots are stored at −20° C. or −80° C. The mitochondrial HSP60 is a functional dimer of heptamers (MW(HSP60 monomer)=˜58 kDa), and is involved in multimer protein assembling and aids in transport of unfolded proteins across membranes. For the binding studies, at two occasions separate HSP60 solutions were prepared originating from the same batch of purified protein, lyophilized in separate Eppendorf cups.
Binding of chaperones to immobilized (misfolded) protein ligands was determined using an enzyme linked immuno sorbent assay (ELISA) approach. For this purpose 50 μl/well of potential ligands at indicated concentrations or coat buffer only for control and background measurement purposes, were coated overnight at 4° C. or coated for 1 h at room temperature, with motion, in 50 mM NaHCO3 pH 9.6 (coat buffer). In general, ligands were coated at 5 μg/ml, unless stated otherwise. For example, BiP binding peptides 6BB# and oxLDL were coated at 50 μg/ml. Native haemoglobin (Sigma-Aldrich, H7379), albumin, IgIV Gammagard and ovalbumin controls were prepared from lyophilized stocks. The controls were prepared by dissolving lyophilized proteins at 1 mg/ml in PBS upon resuspending by pipetting, followed by a 30 minutes period at the roller device, at room temperature. The protein solutions were centrifuged for 10 minutes at 16,000*g and diluted in coat buffer. After coating the plates were washed at least three times with 50 mM Tris-HCl pH 7.3, 150 mM NaCl, 0.1% v/v Tween20, and blocked with Blocking reagent (Roche Diagnostics, Almere, The Netherlands; 11112589001), for 1 h at room temperature, with motion. Plates were washed three times and incubated in triplicate with indicated chaperone dilution series, at 50 μl/well, for 1 h at room temperature, with constant motion. For HSP90, 5 mM DTT is incorporated in the binding buffer (PBS/0.1% Tween20) to avoid unwanted disulfide bond formation of the HSP90. Plates were washed three times and incubated with anti-FLAG antibody (mouse antibody, M2, peroxidase conjugate; Sigma, A-8592) for BiP-FLAG-His, anti-His-tag antibody (Mouse Monoclonal Antibody, Cat. No. 70796, Novagen [0.2 mg/ml]) for HSP60, a 1:1 mix of 500-fold diluted anti-HSP90beta antibodies (Stressgen, SPA-643 [mouse monoclonal IgM], SPA-646 [rabbit polyclonal]) for HSP90 and an anti-DnaK antibody (Stressgen, 023SPA-880D [mouse monoclonal antibody]) for DnaK. After four wash cycles, secondary antibodies were added to the wells when required, 50 μl/well, for 45′ at room temperature, with motion. RAMPO and SWARPO were used at 3000 times dilution. […] In a second experiment with more immobilized misfolded proteins and controls, the detection of bound HSP90 with the mix of two anti-HSP90 antibodies was achieved by mixing 1:1500 SWARPO with 1:3000 RAMPO. After 5 washes with wash buffer followed by two washes with PBS, binding of antibodies was assessed. Bound anti-FLAG-PO, peroxidase-conjugated rabbit anti-mouse immunoglobulins (RAMPO, P0260, DAKOCytomation, Glostrup, Denmark) or peroxidase-coupled swine anti-rabbit immunoglobulins (SWARPO, P0217, DAKOCytomation) was visualized with tetramethylbenzidine (TMB, #45.01.20,/#45.014.01, Biosource, Nivelles, Belgium). The reaction was stopped after 5 minutes with 1% H2SO4 in H2O. Plates were read at 450 nm. […]

T1 sequence (P11021 19-654): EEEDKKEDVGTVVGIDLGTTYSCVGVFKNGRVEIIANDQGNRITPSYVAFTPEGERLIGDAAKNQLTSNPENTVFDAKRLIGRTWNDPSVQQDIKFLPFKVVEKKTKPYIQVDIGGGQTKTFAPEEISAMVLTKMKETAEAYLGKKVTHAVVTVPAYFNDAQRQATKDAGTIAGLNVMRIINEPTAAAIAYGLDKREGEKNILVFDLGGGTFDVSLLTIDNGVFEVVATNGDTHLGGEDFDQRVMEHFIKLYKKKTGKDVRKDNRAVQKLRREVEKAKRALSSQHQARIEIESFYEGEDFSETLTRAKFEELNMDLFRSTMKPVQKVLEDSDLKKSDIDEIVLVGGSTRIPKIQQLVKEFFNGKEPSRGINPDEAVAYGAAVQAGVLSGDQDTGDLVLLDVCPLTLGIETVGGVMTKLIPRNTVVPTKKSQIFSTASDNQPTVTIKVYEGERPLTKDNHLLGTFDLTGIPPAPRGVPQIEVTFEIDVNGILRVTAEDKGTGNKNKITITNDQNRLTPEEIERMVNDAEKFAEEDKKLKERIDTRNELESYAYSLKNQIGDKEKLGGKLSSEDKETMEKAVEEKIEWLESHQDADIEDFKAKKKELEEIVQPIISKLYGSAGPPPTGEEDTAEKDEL
T2 sequence (P0A6Y8 whole entry): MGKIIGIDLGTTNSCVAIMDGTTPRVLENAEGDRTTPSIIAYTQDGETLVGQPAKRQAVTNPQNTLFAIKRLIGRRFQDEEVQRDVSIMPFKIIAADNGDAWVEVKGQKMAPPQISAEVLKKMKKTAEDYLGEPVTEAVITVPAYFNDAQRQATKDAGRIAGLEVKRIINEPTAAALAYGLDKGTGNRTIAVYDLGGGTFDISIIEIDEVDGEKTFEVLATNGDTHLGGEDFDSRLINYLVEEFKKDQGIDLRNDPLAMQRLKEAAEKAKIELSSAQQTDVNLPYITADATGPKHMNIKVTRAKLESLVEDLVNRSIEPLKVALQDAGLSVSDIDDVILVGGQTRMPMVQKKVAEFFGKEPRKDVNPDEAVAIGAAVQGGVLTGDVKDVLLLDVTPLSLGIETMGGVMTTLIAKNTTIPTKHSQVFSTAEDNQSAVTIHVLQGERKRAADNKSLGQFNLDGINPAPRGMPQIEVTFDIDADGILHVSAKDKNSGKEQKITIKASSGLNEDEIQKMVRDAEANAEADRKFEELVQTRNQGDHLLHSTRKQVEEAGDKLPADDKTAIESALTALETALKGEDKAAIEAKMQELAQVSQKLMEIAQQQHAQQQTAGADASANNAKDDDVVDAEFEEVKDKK
T3 sequence (P10809 27-573): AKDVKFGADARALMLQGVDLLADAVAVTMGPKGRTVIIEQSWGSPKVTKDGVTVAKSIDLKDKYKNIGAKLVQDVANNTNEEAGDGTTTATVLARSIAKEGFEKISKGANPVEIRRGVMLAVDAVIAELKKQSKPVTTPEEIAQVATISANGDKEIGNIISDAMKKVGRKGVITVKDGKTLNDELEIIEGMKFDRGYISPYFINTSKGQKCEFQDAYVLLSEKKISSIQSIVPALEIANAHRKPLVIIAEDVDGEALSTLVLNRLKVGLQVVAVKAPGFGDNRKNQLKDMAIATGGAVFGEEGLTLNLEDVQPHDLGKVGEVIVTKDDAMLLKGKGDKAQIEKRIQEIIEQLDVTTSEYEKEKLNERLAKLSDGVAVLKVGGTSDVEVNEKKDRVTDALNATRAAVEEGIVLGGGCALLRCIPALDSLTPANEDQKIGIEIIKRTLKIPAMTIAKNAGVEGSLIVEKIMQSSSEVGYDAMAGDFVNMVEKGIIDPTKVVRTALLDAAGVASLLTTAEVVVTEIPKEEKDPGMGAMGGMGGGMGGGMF

FWGLWPWE [6BB11]
Binding of concentration series of BiP to coated ligand (human BiP [1]): has been established
Influence of Congo red on interaction of BiP with misfolded protein (human BiP [2]; concentration series of Congo red): ↓ (a ↓ sign refers to inhibited abolished binding of BiP)
Influence of ThS on interaction of BiP with misfolded protein (human BiP [2]; concentration series of ThS): ↓ (a ↓ sign refers to inhibited abolished binding of BiP)
Influence of ThT on interaction of BiP with misfolded protein (human BiP [2]; concentration series of ThT): ↓ (a ↓ sign refers to inhibited abolished binding of BiP)
Binding of concentration series of DnaK to coated ligand [3]: did not bind

YVDRFIGW [6BB8]
Binding of concentration series of BiP to coated ligand (human BiP [1]): no BiP binding was observed
Binding of concentration series of DnaK to coated ligand [3]: did not bind

fibrin: fibrin immobilized in wells from fibrinogen and factor IIa
Binding of concentration series of BiP to coated ligand (human BiP [1]): has been established
Binding of concentration series of HSP60 to coated ligand [4]: has been established
Binding of concentration series of DnaK to coated ligand [3]: has been established

RRRAA [6BB13]
Binding of concentration series of BiP to coated ligand (human BiP [1]): no BiP binding was observed
Binding of concentration series of DnaK to coated ligand [3]: did not bind
